Measured values published in US20250135039A1, “INHIBITOR-RESISTANT MGMT MODIFICATIONS AND MODIFICATION OF MGMT-ENCODING NUCLEIC ACIDS” (Ensoma, Inc., priority 2022, published 2025).

Tested on: U251 human glioblastoma cell line
Assay: in vitro FM-HCR assay of MGMT activity (mPlum O^6MeG reporter plasmid)
Format: cell-based
Conditions: for Reporter expression (%) mean, O^6BG: 100 μM O^6BG; for Reporter expression (%) mean, O^6BG / Reporter expression (%) mean, DMSO: U251 cells, flow cytometry 24 h after transfection, damaged/undamaged reporter, inversely related to MGMT activity; for Reporter expression (%) mean, DMSO: 0.1% DMSO; for MGMT activity (a.u.) DMSO / MGMT activity (% of WT) DMSO: DMSO condition; for MGMT activity (a.u.) DMSO / MGMT activity (a.u.) O^6BG: determined from percent reporter expression; for MGMT activity (% of WT) DMSO / MGMT activity (% of WT) O^6BG: relative to wild-type MGMT in same condition; for Relative MGMT activity (%): MGMT activity (a.u.) in O^6BG divided by DMSO x 100, higher values indicate resistance; for MGMT activity (a.u.) O^6BG / MGMT activity (% of WT) O^6BG: O^6BG condition; for Ratio percent reporter expression (O^6BG/DMSO): lower values indicate resistance to O^6BG; for O^6BG resistance relative to WT (%): percentage difference in relative MGMT activity between variant and wild-type MGMT
Description: The present Example includes, in part, an in vitro fluorescence multiplex host cell reactivation (FM-HCR) assay in which a reporter plasmid with O^6MeG-containing oligonucleotides is used. The oligonucleotides induce transcription errors that lead to expression of fluorescent mPlum protein. Functional MGMT will repair the O^6MeG sites and reduce mPlum expression. This represents a rapid and validated assay system to assess intracellular activity of MGMT. Further description of certain such assays is found in Nagel (2014 PNAS USA 111 (18): E1823-32, which is incorporated herein by reference.
The present Example uses an in vitro FM-HCR assay in which a reporter plasmid with 0° MeG-containing oligonucleotides is used to assay MGMT activity in cells. The O^6MeG-containing oligonucleotides induce transcription errors that lead to expression of fluorescent mPlum protein. Functional MGMT will repair the O'MeG sites and reduce mPlum expression. This represents a rapid and validated assay system to assess intracellular activity of MGMT. Further description of certain such assays is found in Nagel et al., 2014 PNAS USA 111 (18): E1823-32 and Piett et al., 2021 Nat. Protoc. 16 (9): 4265-4298, each of which is incorporated herein by reference.
The in vitro FM-HCR assay was performed using the U251 human glioblastoma cell line. The cells were cultured in DMEM with 10% FBS and passaged every three days.
To express MGMT variants in the cells, plasmids encoding each MGMT variant were designed and generated by either de novo synthesis or cloning into the pTwist EF1 Alpha Puro vector at the HindII-BamHI multiple cloning site. The pTwist EF1 Alpha Puro plasmid vector drives expression of the MGMT transcript from a human EF1-alpha promoter including intron 1 and an SV40 polyadenylation signal. Plasmids encoding the MGMT variants were purified using standard molecular biology techniques from E. coli with low endotoxins. Plasmids encoding wild-type MGMT or O^6BG-resistant MGMT^P140K were also designed and generated for use as controls.
To perform the in vitro FM-HCR assay, U251 cells were seeded in 12-well plates at a density of 50,000 cells per well in 1 mL culture media. The following day, the media was changed to 1 mL of culture media containing O^6BG (100 μM O^6BG and 0.1% DMSO final) or 0.1% DMSO; and the cells were transfected with 1,000 ng of a plasmid cocktail using Lipofectamine 3000 (ThermoFisher Scientific) at 1.8 μL Lipofectamine 3000 Reagent and 2 μL P3000 reagent in Opti-MEM medium (ThermoFisher Scientific). […] For the “undamaged” condition, the plasmid cocktail replaced the mPlum O^6MeG reporter plasmid with 100 ng of a plasmid expressing mPlum. The plasmid encoding BFP was used as an internal transfection control. For transfections where no MGMT encoding plasmid is used (no pMGMT), 250 ng of additional carrier plasmid was used to maintain a total DNA amount of 1,000 ng in each transfection. Four hours after transfection, the transfection medium was changed.
All transfected cells were analyzed by flow cytometry at 24-hours after transfection. Data was analyzed as previously described in Nagel et al., 2014 PNAS USA 111 (18): E1823-32 and Piett et al., 2021 Nat. Protoc. 16 (9): 4265-4298. For each condition, normalized reporter expression was determined by taking the product of the mPlum-positive cell count and the mean mPlum fluorescence intensity in mPlum-positive cells and dividing it by the product of the BFP-positive cell count and the mean BFP fluorescence intensity in BFP-positive cells. Next, for each MGMT variant, the percent reporter expression was determined by taking the normalized reporter expression in the “damaged” condition and dividing it by the normalized reporter expression in the “undamaged” condition, and then multiplying by 100 to obtain a percent value. […]

| Molecule | Reporter expression (%) mean, O^6BG [%] | Reporter expression (%) mean, DMSO [%] | MGMT activity (a.u.) DMSO [a.u.] | MGMT activity (% of WT) DMSO | Relative MGMT activity (%) | MGMT activity (a.u.) O^6BG [a.u.] | MGMT activity (% of WT) O^6BG | Ratio percent reporter expression (O^6BG/DMSO) | O^6BG resistance relative to WT (%) |
| --- | --- | --- | --- | --- | --- | --- | --- | --- | --- |
| P140H: MGMT polypeptide with mutation P140H (protein) MDKDCEMKRTTLDSPLGKLELSGCEQGLHEIKLLGKGTSAADAVEVPAPAAVLGGPEPLMQCTAWLNAYFHQPEAIEEFPVPALHHPVFQQESFTRQVLWKLLKVVKFGEVISYQQLAALAGNPKAARAVGGAMRGNPVHILIPCHRVVCSSGAVGNYSGGLAVKEWLLAHEGHRLGKPGLGGSSGLAGAWLKGAGATSGSPPAGRN | 29.3 | 15.7 | 6.38 | 118.1 % of WT | 53.4 | 3.41 | 238.6 % of WT | 1.87 | 102.1 |
| G156V: MGMT polypeptide with mutation G156V (protein) MDKDCEMKRTTLDSPLGKLELSGCEQGLHEIKLLGKGTSAADAVEVPAPAAVLGGPEPLMQCTAWLNAYFHQPEAIEEFPVPALHHPVFQQESFTRQVLWKLLKVVKFGEVISYQQLAALAGNPKAARAVGGAMRGNPVPILIPCHRVVCSSGAVVNYSGGLAVKEWLLAHEGHRLGKPGLGGSSGLAGAWLKGAGATSGSPPAGRN | 55.0 | 36.8 | 2.72 | 50.3 % of WT | 66.8 | 1.82 | 127.3 % of WT | 1.50 | 152.8 |
| P140I: MGMT polypeptide with mutation P140I (protein) MDKDCEMKRTTLDSPLGKLELSGCEQGLHEIKLLGKGTSAADAVEVPAPAAVLGGPEPLMQCTAWLNAYFHQPEAIEEFPVPALHHPVFQQESFTRQVLWKLLKVVKFGEVISYQQLAALAGNPKAARAVGGAMRGNPVIILIPCHRVVCSSGAVGNYSGGLAVKEWLLAHEGHRLGKPGLGGSSGLAGAWLKGAGATSGSPPAGRN | 31.0 | 14.7 | 6.82 | 126.1 % of WT | 47.3 | 3.23 | 225.8 % of WT | 2.11 | 79.0 |
| P140R: MGMT polypeptide with mutation P140R (protein) MDKDCEMKRTTLDSPLGKLELSGCEQGLHEIKLLGKGTSAADAVEVPAPAAVLGGPEPLMQCTAWLNAYFHQPEAIEEFPVPALHHPVFQQESFTRQVLWKLLKVVKFGEVISYQQLAALAGNPKAARAVGGAMRGNPVRILIPCHRVVCSSGAVGNYSGGLAVKEWLLAHEGHRLGKPGLGGSSGLAGAWLKGAGATSGSPPAGRN | 38.3 | 25.3 | 3.95 | 73.0 % of WT | 66.1 | 2.61 | 182.6 % of WT | 1.51 | 150.1 |
| G156P: MGMT polypeptide with mutation G156P (protein) MDKDCEMKRTTLDSPLGKLELSGCEQGLHEIKLLGKGTSAADAVEVPAPAAVLGGPEPLMQCTAWLNAYFHQPEAIEEFPVPALHHPVFQQESFTRQVLWKLLKVVKFGEVISYQQLAALAGNPKAARAVGGAMRGNPVPILIPCHRVVCSSGAVPNYSGGLAVKEWLLAHEGHRLGKPGLGGSSGLAGAWLKGAGATSGSPPAGRN | 47.3 | 41.0 | 2.44 | 45.1 % of WT | 86.6 | 2.11 | 147.9 % of WT | 1.15 | 227.8 |
| G156I: MGMT polypeptide with mutation G156I (protein) MDKDCEMKRTTLDSPLGKLELSGCEQGLHEIKLLGKGTSAADAVEVPAPAAVLGGPEPLMQCTAWLNAYFHQPEAIEEFPVPALHHPVFQQESFTRQVLWKLLKVVKFGEVISYQQLAALAGNPKAARAVGGAMRGNPVPILIPCHRVVCSSGAVINYSGGLAVKEWLLAHEGHRLGKPGLGGSSGLAGAWLKGAGATSGSPPAGRN | 54.0 | 42.0 | 2.38 | 44.0 % of WT | 77.8 | 1.85 | 129.6 % of WT | 1.29 | 194.3 |
| G156A: MGMT polypeptide with mutation G156A (protein) MDKDCEMKRTTLDSPLGKLELSGCEQGLHEIKLLGKGTSAADAVEVPAPAAVLGGPEPLMQCTAWLNAYFHQPEAIEEFPVPALHHPVFQQESFTRQVLWKLLKVVKFGEVISYQQLAALAGNPKAARAVGGAMRGNPVPILIPCHRVVCSSGAVANYSGGLAVKEWLLAHEGHRLGKPGLGGSSGLAGAWLKGAGATSGSPPAGRN | 79.0 | 32.3 | 3.10 | 57.4 % of WT | 40.8 | 1.27 | 88.6 % of WT | 2.45 | 54.5 |
| P140Q: MGMT polypeptide with mutation P140Q (protein) MDKDCEMKRTTLDSPLGKLELSGCEQGLHEIKLLGKGTSAADAVEVPAPAAVLGGPEPLMQCTAWLNAYFHQPEAIEEFPVPALHHPVFQQESFTRQVLWKLLKVVKFGEVISYQQLAALAGNPKAARAVGGAMRGNPVQILIPCHRVVCSSGAVGNYSGGLAVKEWLLAHEGHRLGKPGLGGSSGLAGAWLKGAGATSGSPPAGRN | 49.0 | 15.3 | 6.52 | 120.7 % of WT | 31.3 | 2.04 | 142.9 % of WT | 3.20 | 18.4 |
